In paper doi:10.1101/2025.08.04.668557:

What was measured:
[1] = system: Nsp1 N127 (6His-Nsp1(N127)) (SARS-CoV-2); experiment: MST; settings: assay buffer not stated ([…]
[2] = system: Nsp1 full-length (6His-Nsp1) (SARS-CoV-2); experiment: MST; settings: assay buffer not stated ([…]

Question: What does the source list for CoV2 5' UTR 1-50 RNA?
Answer: Kd [1]: 77.8 µM; Kd [2]: 6.3 µM

Question: TIAR 5' UTR 1-50 RNA was tested. Which Kd [1] did it give?
Answer: 112 µM

Question: And the Kd [2]?
Answer: 4.23 µM
